Test results from the supplement of paper PMC9170038.

Tested on: MS2 coat protein
Assay: apparent KD of MS2 coat protein; designed switch direction (-1 OFF switch, 1 ON switch): -1; higher = weaker reporter binding
In short: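 Each step of the titration lasted 0.8–1.5 h at the lowest concentration and 10–20 min at the highest. The protein, SNAP-549-labelled MS2 coat protein, went from 0.7 or 1.5 nM doubling to 3 µM over RNA switches transcribed on Illumina chips by stalled E. coli RNA polymerase. Normalised cluster fluorescence was curve-fitted, and the per-design median over clusters is given as apparent KD.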

[1] = input ligand: microRNA oligo, concentration not stated
[2] = Eterna round: R95, input ligand: microRNA oligo, concentration not stated
[3] = Eterna round: R95, input ligand: FMN 200 uM
[4] = Eterna round: R95, input ligand: none

| Sequence | apparent KD of MS2 coat protein (input ligand: FMN 200 uM) [nM] | apparent KD of MS2 coat protein (input ligand: none) [nM] | apparent KD of MS2 coat protein [1] [nM] | apparent KD of MS2 coat protein [2] [nM] | apparent KD of MS2 coat protein [3] [nM] | apparent KD of MS2 coat protein [4] [nM] |
| --- | --- | --- | --- | --- | --- | --- |
| AUUUGCUCGUCUACUCAAAACAUGAGGAUCACCCAUGUCGGAUUGGAUCCUACCCAGUCAAGACCAUACUCCUCGAC [Eternabot (Original) Solution 39] (Eterna round: R97, puzzle: Sensor, turn-off variant 1) | 342 | 344 |  |  |  |  |
| AUUUUAUAUGAAGGAUAUACUUAACAUGAGGAUCACCCAUGUGGUGUUGUGAGUGAGUGAGUUUAGUAGAAGGUCAAGUAUUUU [JMF's solution 55] (Eterna round: R96, puzzle: Exclusion NG 2) | 724 | 396 | 284 |  |  |  |
| AUUUUAUAUGAAGGAUAUACUUAACAUGAGGAUCACCCAUGUGGUGUUGUGAGUGAGUGAGUUUAGUAGAAGGUCAAUGAUUUU [JMF's solution 76] (Eterna round: R96, puzzle: Exclusion NG 2) | 828 | 327 | 527 |  |  |  |
| AUUUUAUAUGAAGGAUAUACUUAACAUGAGGAUCACCCAUGUGGUGUUGUGAGUGAGUGAGUUUAGUAGAAGGUCAAUUCUUUU [JMF's solution 98] (Eterna round: R96, puzzle: Exclusion NG 2) | 240 | 288 | 185 |  |  |  |
| AUUUUGUCAGGAUAUGAUUAGUAGGAUGAGAGUGCUACUACUUAGAAGGGACAUGAGGAUCACCCAUGUAUUCC [Bring Us a Shrubbery-07] (puzzle: Exclusion 4) |  |  |  | 14.7 |  |  |
| AUUUUGUCAGGAUAUUGUUAGUUUAGUUGUUUGUAUUAGUUCGAGAAGGGACAUGAGGAUCACCCAUGUGAUUA [Ex4 #73] (Eterna round: R97, puzzle: Exclusion 4) | 148 | 92.2 |  |  |  |  |
| AUUUUGUGAGGAUAUUAGUAGUAAAUAAAUAAAAUUAUUACUGAGAAGGCACAUGAGGAUCACCCAUGUUCCUA [Salish 062 v7] (Eterna round: R97, puzzle: Exclusion 4) | 193 | 19 |  |  |  |  |
| CAAAACAGAGGAUAUACAUUUCCUCACCGCCAAAUAGCGGAACAUGAGGAUCACCCAUGUAGAAGGCUGGAAAA [Usenqura] (puzzle: Exclusion 2) |  |  |  | 37.1 | 384 | 43.4 |
| CAAAAGGAAGGAUAUGCAUCGGGAGGUGCUCAGCAUCAAAUACAUGAGGAUCACCCAUGUAGAAGGUCUGAAAA [Edbile] (puzzle: Exclusion 2) |  |  |  | 31.5 |  |  |
| CAAACCAGAGGAUAUGCGCAUAGAUCAGACUUUGUUUCUUAACAUGAGGAUCACCCAUGUAGAAGGCUGUAAAC [Ex2 #74] (Eterna round: R97, puzzle: Exclusion 2) | 12.3 | 13.3 |  |  |  |  |
| CAAAGAACAUGAGGAUCACCCAUGUGAACCUUCGUUCGACCUCAGGAUAUCCGCCACCGUCCGCAGGAGAAGGGAGGGAAAAUA [Isinar] (Eterna round: R96, puzzle: Exclusion NG 3) | 138 | 72.8 | 64.9 |  |  |  |
| CAAAGAUAAGGAUAUUGAAGGUUCGACAUGAGGAUCACCCAUGUUAUGUUGGAAAAGGGACAAGAAGGUAUGAAAA [salish99_ex5_r4_214] (Eterna round: R97, puzzle: Exclusion 5) | 31.5 | 39.3 |  |  |  |  |
| CAAAGUUGGUAAGGAUAUCCCACAUUAUUCUGACCCGUGCAAGCUACAUGAGGAUCACCCAUGUGGGAGAAGGUGCGUUAAAGU [Design 2] (Eterna round: R96, puzzle: Exclusion NG 2) | 261 | 196 | 164 |  |  |  |
| CAACGUGAGCAGGAUAUACAGAGGGAGACCUGGGUAGAAGGGCUCACAUGAGGAUCACCCAUGUUAGCCAAAGA [Eternabot (Original) Solution 47] (Eterna round: R97, puzzle: Exclusion 6) | 33.3 | 18.8 |  |  |  |  |
| CAAGAUUACUGAGGAUAUCCUAGUUUAUUUCAGGGAGAAGGCGGACUCAACAUGAGGAUCACCCAUGUAAGACGGGUACUAGAG [Ex NG1 #16] (Eterna round: R96, puzzle: Exclusion NG 1) | 94.7 | 78.4 | 71.1 |  |  |  |
| CAAUAACAAGCAGGAUCCUACAUGAGGAUCACCCAUGUGCUCGUCUUAUAAAGUACUAUCACGAAAGUGAUAGUACA [Mat - Sensor v3 - turn-off var 1 - Eli Mod - D71] (puzzle: Sensor v3, turn-off variant 1) |  |  |  | 58.6 | 190 | 396 |
| CAAUGCGGAGGAUAUACAUUUAUGACUGCCACAGUACCGAGACAUGAGGAUCACCCAUGUAGAAGGCCGAUUAA [EX2 B.9] (Eterna round: R97, puzzle: Exclusion 2) | 20.4 | 16.7 |  |  |  |  |
| CAAUUCCGAGGAUAUACAUGAGGAUCACCCAUGUCGGGCCUCAGCGUUUAGCGCGUAAGUAGAAGGUGGGUUUC [JL Riri mod 6] (puzzle: Exclusion 3) |  |  |  | 29.5 |  |  |
| CAAUUGGGAGGAUAUACAUGAGGAUCACCCAUGUCGAUCCCAGGUAAGUUAAUACUUCGUAGAAGGCCUAUCUC [Eternabot (L2) Solution 16] (Eterna round: R97, puzzle: Exclusion 3) | 20.6 | 17.6 |  |  |  |  |
| CACAAGCUUUUUUGAUGCAUUUUAGUUGGUGUGCUUUUUACAUGAGGAUCACCCAUGUUUAUGAAGCUCGAUCUUUU [JR_SV3TOV2_Sub080] (puzzle: Sensor v3, turn-off variant 2) |  |  |  | 15 | 14 | 12.8 |
| CACCGUAACAGAGGAUAUGAUACAUGAGGAUCACCCAUGUAAUAAAUGAGAAUUUCGAAUGUACCUCAGAAGGCUGAAACCGGC [Ostricism 81 - Jieux - Exclusion NG 2] (Eterna round: R96, puzzle: Exclusion NG 2) | 115 | 48 | 38.5 |  |  |  |
| CACCGUAACUGAGGAUAUCAAACAUGAGGAUCACCCAUGUAAUAAAUGAGAAUUUCGAAUGUACCUGAGAAGGCAGAAACCGGC [Ostricism 84 - Jieux - Exclusion NG 2] (Eterna round: R96, puzzle: Exclusion NG 2) |  |  | 25.1 |  |  |  |
| CACCGUUAAGGAGGAUAUCGUACAUGAGGAUCACCCAUGUAAUAAAUGAGAAUUUCGGAUGUAUGCGAGAAGGCCUAAAUCGGC [Ostracism 44 - Jieux - Exclusion NG 2] (Eterna round: R96, puzzle: Exclusion NG 2) |  |  | 34.7 |  |  |  |
| CACCGUUACACAGGAUAUCUUACAUGAGGAUCACCCAUGUAAUAAAUGAGAAUUUCGAAUGUAUUAGAGAAGGGUGGAAUCGGC [Ostracism 67 - Jieux - Exclusion NG 2] (Eterna round: R96, puzzle: Exclusion NG 2) |  |  | 29.8 |  |  |  |
| CACCGUUACAGAGGAUAUGUCACAUGAGGAUCACCCAUGUAAUAAAUGAGAAUUUCGAAUGUAACACAGAAGGCUGGAAUCGGC [Ostricism 76 - Jieux - Exclusion NG 2] (Eterna round: R96, puzzle: Exclusion NG 2) | 37.1 | 26.5 | 18.1 |  |  |  |
| CACCGUUACUGAGGAUAUGGUACAUGAGGAUCACCCAUGUAAUAAAUGAGAAUUUCGGAUGUAUUCCAGAAGGCAGAAAUCGGC [Ostricism 63 - Jieux - Exclusion NG 2] (Eterna round: R96, puzzle: Exclusion NG 2) | 65.2 | 60.3 | 40.5 |  |  |  |
| CACCGUUAGAGAGGAUAUCGUACAUGAGGAUCACCCAUGUAAUAAAUGAGAAUUUCGGAUGUAUGCGAGAAGGCUCAAAUCGGC [Ostracism 39 - Jieux - Exclusion NG 2] (Eterna round: R96, puzzle: Exclusion NG 2) | 42.1 | 60 | 42.5 |  |  |  |
| CACCGUUAGUGAGGAUAUCUUACAUGAGGAUCACCCAUGUAAUAAAUGAGAAUUUCGGAUGUAUGAGAGAAGGCACAAAUCGGC [Ostricism 53 - Jieux - Exclusion NG 2] (Eterna round: R96, puzzle: Exclusion NG 2) | 21.2 | 22.7 | 18.5 |  |  |  |
| CACCGUUAUGGAGGAUAUCGUACAUGAGGAUCACCCAUGUAAUAAAUGAGAAUUUCGGAUGUAUGCGAGAAGGCCAAAAUCGGC [Ostracism 43 - Jieux - Exclusion NG 2] (Eterna round: R96, puzzle: Exclusion NG 2) | 46.6 | 43.5 | 26.9 |  |  |  |
